Results published in patent publication US20220380801A1, “TRIPARTITE SYSTEMS FOR PROTEIN DIMERIZATION AND METHODS OF USE” (priority 2019, published 2022).

How the values were obtained:
[1] = system: GFP-PEST expression in monoclonal HEK293 cell lines; assay: Flow cytometry kinetics of GFP-PEST expression after simeprevir removal; assay type: cell-based, human; details: 24h simeprevir induction, then removal
[2] = system: fluorogenic HCV protease FRET substrate; assay: HCV NS3/4A PR protease activity assay (fluorogenic peptide cleavage); assay type: biochemical; details: compared to WT
Description: To assess enzyme activity, cleavage of a fluorogenic HCV protease FRET substrate with an EDANS-DABCYL donor-quencher pair by purified HCV NS3/4A PR and the S139A mutant (RET 51, AnaSpec) was measured. When in close proximity (10-100 Å), as would be the case for the intact peptide, EDANS is excited at 340 nm, and the energy emitted from EDANS (at 490 nm) is quenched by DABCYL. Cleavage of the peptide by the HCV NS3/4A PR separates DABCYL from EDANS, allowing detection of fluorescence at 490 nm.
Serial dilutions of HCV NS3/4A PR and the active site mutant S139A in assay buffer (HEPES pH 7.8, 5 mM DTT, 100 mM NaCl, 10% glycerol, 0.01% CHAPS) were incubated with the fluorogenic substrate at room temperature. Fluorescence was measured after 3 hours using a PerkinElmer Envision plate reader (excitation 340 nm, emission 490 nm).

[3] = system: luciferase reporter gene in HEK293 cells; assay: Transcriptional regulation assay (split transcription factor), luciferase reporter; assay type: cell-based, human; details: protease variant-AD and DBD-PRSIM_23 (three tandem copies)
Text: The iDimerize regulated transcription system (Takara) was used to test the ability of PRSIM-based CIDs to regulate gene expression. […] The DBD and AD are separately fused to the two protein components of a CID such that, only in the presence of the small molecule inducer, the AD is brought into close proximity to the DBD, recruiting the transcription machinery to a promoter harbouring the DBD recognition sites. The iDimerize regulated transcription system (Takara) provides two vectors, pHet-Act1-2 and pZFHD1-Luciferase. The pHet-Act1-2 vector encodes two fusion proteins that represent a positive control: one is a fusion between FRB (T82L mutant; DmrC) and an activation domain (AD) from human p65 (SEQ ID NO: 42); the other is a fusion protein comprised of a DNA binding domain (ZFHD1) (SEQ ID NO: 43) fused to three tandem copies of FKBP12 (DmrA). These sequences are preceded by a CMV promoter and separated by an internal ribosome entry site (IRES). The ZFHD1 vector encodes luciferase preceded by an inducible promoter consisting of 12 copies of the recognition sequence of the ZFHD1 DBD upstream of a minimal IL-2 promoter. Binding of the DBD to its recognition sequence and recruitment of the transcriptional machinery by the AD initiates transcription of the luciferase reporter gene. The DNA sequence encoding HCV NS3/4A PR (S139A) was purchased as a DNA string from GeneArt and cloned into the pHet-Act1-2 vector as either an N-terminal fusion partner to the activation domain (SEQ ID NO: 44) (replacing FRB) or as a C-terminal fusion partner to the DNA binding domain (SEQ ID NO: 45) (replacing FKBP12) with flexible linkers (TGGGGSGGGGS (SEQ ID NO: 185) and SA, respectively) between the fusion partners. Subsequently, sequences encoding one copy of a panel of 12 PRSIM molecules (Table 2) were purchased as DNA strings from GeneArt and were cloned using Gibson assembly into the HCV NS3/4A PR (S139A)-containing pHetAct1-2 constructs described above, as a fusion partner to either the DBD (SEQ ID NOS: 46-56) or AD (SEQ ID NOS: 57-67), respectively. An equivalent construct was generated to replace the three copies of FKBP12 in pHet-Act1-2 with a single copy of FKBP12. The sequence of the constructs encoding both activation domain and DNA-binding domain fusion proteins was confirmed by Sanger sequencing of the entire coding region.
Sequences encoding the three HCV NS3/4A PR (S139A) mutants (Table 6) were purchased as DNA strings from GeneArt and were cloned using Gibson assembly into the pHetAct1-2 HCV NS3/4A PR (S139A)-PRSIM_23 (3 tandem copy) construct described above as a fusion partner to the AD (SEQ ID NOs: 211-216).
All transcriptional regulation assays were performed in adherent HEK293 cells cultured in 384-well plates. Cells enzymatically dissociated from a tissue culture flask were counted and plated at 7.5×10^3 cells/well in a 384-well plate. The plates were incubated overnight at 37° C. with 5% CO2 to allow the cells to adhere. On day 2, the cells were co-transfected with a pHet-Act1-2 plasmid (containing the FRB:FKBP12 control fusion proteins (Clontech) or the HCV NS3/4A PR (S139A):PRSIM fusion proteins) and a pZFHD1 plasmid (encoding either luciferase (Clontech) or NanoLuc-PEST (as described above)) using Lipofectamine LTX (ThermoFisher). On day 3, wells were treated with different concentrations of either A/C heterodimeriser (for the FRB:FKBP12 control), simeprevir or with vehicle control, and 24 hours later luminescence was quantified with an Envision plate reader immediately following addition of SteadyGlo luciferase substrate (Promega) or Nano-Glo Vivazine luciferase substrate (Promega). Alternatively, reverse transfections were carried out on Day 1, addition of dimeriser on Day 2 and luminescence quantified 24 hours later on Day 3.
Luminescence readings were converted into fold-change by dividing the signal in the presence of simeprevir by that in the absence of simeprevir.

B1: “WT” S139A: HCV NS3/4A protease with active site mutation S139A, SEQ ID NO: 2 (protein)
chain: MKKKGSVVIVGRINLSGDTAYAQQTRGEEGCQETSQTGRDKNQVEGEVQIVSTATQTFLATSINGVLWTVYHGAGTRTIASPKGPVTQMYTNVDKDLVGWQAPQGSRSLTPCTCGSSDLYLVTRHADVIPVRRRGDSRGSLLSPRPISYLKGSAGGPLLCPAGHAVGIFRAAVSTRGVAKAVDFIPVESLETTMRSP
modifications: HCV NS3/4A PR (S139A)
With B1 the “GFP fluorescence after simeprevir removal” value [1] was “retained high GFP-fluorescence over 24 h”, the enzymatic activity [2] was “No enzymatic activity could be detected at most concentrations tested” and the Max fold change [3] was 6973.
